Data as given in patent publication US20180200345A1, “PROCESS AND COMPOSITION FOR LOW DOSE INSEMINATION” (IMV TECHNOLOGIES, priority 2015, published 2018).

Test system: uterine epithelial cells (UEC)
Experiment: Sperm binding to UEC monolayer pre-incubated with lectin
Assay type: cell-based, porcine
Settings: UEC pre-incubated with lectin 10 μg/ml 15 min, then sperm 10 min
Method: Confluent UEC were grown on glass cover slips form primary cell cultures. In total, uteri from 78 primiparous German Landrace or German Edelschwein gilts aged 8-10 months and with live weights of over 110 kg, were retrieved to harvest primary cells. All animals were maintained and handled according to the German regulations for animal welfare. Gilts were monitored for natural oestrus and slaughtered according to standing heat, i.e. at the time when artificial insemination would have been performed. Gilts were stunned electrically and subsequently slaughtered by exsanguination. Three minutes after bleeding the abdomen was opened and the uterus removed in toto. Further, the ovaries, oviducts and the mesometrium were removed by cutting with sterile scissors without damaging the myometrium. The uterine horns were ligated with stitching thread between and a section of 20-25 cm was cut off. The sections were placed in sterile phosphate buffered saline (PBS) without Ca^++ and Mg^++ (Karl Roth, Karlsruhe, Germany) containing 2% Penicillin/Streptomycin (P/S; PAA, Pasching, Austria) in a glass bottle and kept at 5° C. for 45 min. After 45 min at 5° C. the uterine sections were removed from the bottle and placed on cellulose tissue under a sterile laminar flow system. The stitching material was removed. […]

B1: PNA: lectin with affinity for β-D-(1-3)-D-galactosamine (protein, UniProt P02872 24-273, looked up)
Galactose-binding lectin: AETVSFNFNSFSEGNPAINFQGDVTVLSNGNIQLTNLNKVNSVGRVLYAMPVRIWSSATGNVASFLTSFSFEMKDIKDYDPADGIIFFIAPEDTQIPAGSIGGGTLGVSDTKGAGHFVGVEFDTYSNSEYNDPPTDHVGIDVNSVDSVKTVPWNSVSGAVVKVTVIYDSSTKTLSVAVTNDNGDITTIAQVVDLKAKLPERVKFGFSASGSLGGRQIHLIRSWSFTSTLITTTRRSIDNNEKKIMNMASA
B1 was tested, and the “effect on sperm binding to UEC (in words)” value was “some areas showed massive sperm binding as seen with untreated UEC, whereas others were not populated at all”.
